# “And” between values parts separate entries of the source, which are not always exact repeats. Identical values can stand only once.
# B1: human Flower isoform 4 with C-terminal mTFP (hFwe4-mTFP) (natural protein, UniProt Q9UGQ2-1 1-172, looked up)
# chain: MSSSGGAPGASASSAPPAQEEGMTWWYRWLCRLSGVLGAVSCAISGLFNCITIHPLNIAAGVWMIMNAFILLLCEAPFCCQFIEFANTVAEKVDRLRSWQKAVFYCGMAVVPIVISLTLTTLLGNAIAFATGVLYGLSALGKKGDAISYARIQQQRQQADEEKLAETLEGEL
# notes: human Flower (CACFD1) isoform hFwe4, contains exon 3 and both the YRWL and YARI motifs; 93% identical to mFwe2; also called human isoform Fwe4; source: Fwe KO mouse CTLs, transfected with pMAX plasmid, in lysate
# B2: Drosophila Flower isoform Ubi with C-terminal mTFP (dUbi-mTFP) (natural protein, UniProt Q95T12-1 1-194, looked up)
# chain: MSFAEKITGLLARPNQQDPIGPEQPWYLKYGSRLLGIVAAFFAILFGLWNVFSIITLSVSCLVAGILQMVAGFVVMLLEAPCCFVCFGQVNEIAEKVESKPLYFRAGLYIAMAIPPIILCFGLASLFGSGLIFGTGVVYGMMALGKKASAEDMRAAAQQTFGGNTPAQTNDRAGIVNNAQPFSFTGAVGTDSNV
# notes: Drosophila Flower (Fwe), ubiquitous splice isoform dUbi; the three Drosophila isoforms are identical in aa 1-146 and differ in the C-terminus; also called dFwe-Ubi-mTFP; Drosophila Ubi isoform; source: Fwe KO mouse CTLs, transfected with pMAX plasmid, in lysate
# B3: mouse Flower isoform 3 with C-terminal mTFP (mFwe3-mTFP) (natural protein, UniProt Q8BG21-2 1-128, looked up)
# chain: MSGSGAAGAAAGPAPPAQEEGMTWWYRWLCRLAGVLGAVSCAISGLFNCVTIHPLNIAAGVWMIMNAFILLLCEAPFCCQFVEFANTVAEKVDRLRSWQKAVFYCGHGEALRGAWPDVRLPNRNTISL
# notes: source: Fwe KO mouse CTLs, transfected with pMAX plasmid, in lysate
# B4: mouse Flower isoform 2, full-length form, with C-terminal mTFP (mFwe2-mTFP) (natural protein, UniProt Q8BG21-1 1-171, looked up)
# chain: MSGSGAAGAAAGPAPPAQEEGMTWWYRWLCRLAGVLGAVSCAISGLFNCVTIHPLNIAAGVWMIMNAFILLLCEAPFCCQFVEFANTVAEKVDRLRSWQKAVFYCGMAIVPIVMSLTLTTLLGNAIAFATGVLYGLSALGKKGDAISYARIQQQRQQADEEKLAETFEGEL
# notes: mouse Flower (Fwe); also called Mouse Flower 2; source: Fwe KO mouse CTLs, transfected with pMAX plasmid, in lysate
# B5: mouse Flower isoform 1 with C-terminal mTFP (mFwe1-mTFP) (natural protein, UniProt Q8BG21-3 1-106, looked up)
# chain: MSGSGAAGAAAGPAPPAQEEGMTWWYRWLCRLAGVLGAVSCAISGLFNCVTIHPLNIAAGVWMIMNAFILLLCEAPFCCQFVEFANTVAEKVDRLRSWQKAVFYCG
# notes: Whole isoform cDNA synthesised (BioCAT) and subcloned into pMAX-mTFP; also called Mouse Fwe1; source: Fwe KO mouse CTLs, transfected with pMAX plasmid, in lysate
# Biological target: the molecule itself
# Assay: native gel or EMSA; native PAGE (4-16% Bis-Tris, G-250 additive) of lysates of transfected Fwe KO mouse CTLs (modified RIPA: 50 mM Tris pH 7.5, 50 mM NaCl, 1% Triton-X-100, 1 mM EDTA), western blot with anti-DsRed recognising mTFP; oligomeric state read from band size
row,Protein,stoichiometry N
1,B1,2 and 4
2,B2,2 and 4
3,B3,2 and 4 and 6
4,B4,4 and 2
5,B5,4 and 6 and 2

# Reference: paper PMC11655906, “Required minimal protein domain of flower for synaptobrevin2 endocytosis in cytotoxic T cells” (Cellular and Molecular Life Sciences: CMLS, 2024)
